This is an account of results in patent US20250277208A1, “Method of Peptide Library Construction and Peptides Thereof” (Alcamena Stem Cell Therapeutics, LLC, priority 2024, published 2025).

One test concerns the target IL-6 signaling (Homo sapiens, UniProt P05231). The test can be described thus: IL-6 Bioassay (Promega), luciferase reporter cells, inhibition of IL-6-induced cell signaling. The class given is cell-based. As to conditions: peptides incubated with IL-6 for 10 min, IL-6 0.5 nM, cells 6 hours. As for the experimental part: To verify the ability of the peptides of the invention to inhibit IL-6-signaling, they were tested with the IL-6 Bioassay Kit (Promega). This kit includes human cells engineered to express the IL-6 receptor and a luciferase reporter driven by a response element. When IL-6 binds, the IL-6R transduces intracellular signals resulting in luminescence (fluorescence). Inhibition of IL-6 interaction with the receptor leads to the decrease of the luciferase expression and lower fluorescence.
The selected peptides were incubated with IL-6 for 10 min before being added to cell culture medium. […] Peptides 27 (2), 38 (2) and 45 (2) were also tested.
The ability of peptides to inhibit IL-6 signaling pathway was tested with the IL-6 Bioassay from Promega (cat #JA2501). The bioluminescent signal is detected and quantified using Bio-Glo™ Luciferase Assay System. Different concentrations of the test peptides were mixed with IL-6 (0.5 nM) and added to the IL-6 Bioassay Cells according to the manufacturer's instructions. Cells were incubated for 6 hours in a humidified incubator at 37° C. and 5% CO2 concentration. Following incubation, 75 microliters of the Bio-Glo™ Reagent was added to the cell culture and the luminescence was measured with a Biotek Synergy HTX plate reader. Data was analyzed according to manufacturer's recommendations.
In general terms: In a reporter assay the amount or activity of a reporter protein is the signal.

Another test deals with T1, IL-6 (Homo sapiens, UniProt P05231).
T1 construct: purchased R&D Systems BT7270B
Kind of test: Biacore surface plasmon resonance binding of peptides to immobilised IL-6. Particulars: Table 2, mutation combinations; N terminus acetylated, C terminus amidated; nd = not detected; read-out: KD (nM) P < 0.05.
Excerpt: Two DNA fragments were amplified from a synthetic fragment of the IL-6R. The 5′ fragment was amplified with forward primer and a mixture of 432 reverse primers, each containing an overhang of 6 codons. The 3′ fragment was amplified with a mixture of 432 forward primers, also containing overhangs of six degenerate codons and the reverse primer. Either the first or the second nucleotide of each codon was replaced with a degenerate base. Following PCR amplification, DNA fragments were phosphorylated and ligated leading to various sequence rearrangements shown at the bottom of the FIG. 3. Four hundred thirty-two forward and reverse oligos with an overhang of 6 codons from the IL-6R binding domain were used for PCR. A degenerate nucleotide was inserted at the first or second position of each codon. When ligated, these sequences generated a library of 1×10^13 different DNA sequences. The library of DNA sequences was taken through eight rounds of mRNA Display generating a peptide library. Eighteen of the most abundant peptides in the peptide library were synthesized in a linear form and tested for binding to IL-6 using Biacore. One of the peptides (#9) (“Peptide 9”) from the peptide library, with the sequence of […] The twelve non-terminal residues represent the PepFusion library-derived DNA sequences, while N-terminal serine and C-terminal glycine come from the flanking linkers and were kept as a precaution, in case linker sequences contributed to peptide interaction with its target.
Binding reactions were performed in HBS-P/2% DMSO buffer (10 mM Hepes, pH 7.4, 150 mM NaCl, 0.05% P-20, 2% DMSO), which was filtered through […] filters and degassed before use. Biotinylated recombinant human IL-6 (IL-6-Biotin) was bound to the surface of a Biacore SA sensor chip of a Biacore T200 surface plasmon resonance unit as follows. The streptavidin surface of the chip (flow cells 1 and 2) was activated by injecting 20 μl of 1 M NaCl/50 mM NaOH at 20 μl/min, in 3 pulses. Biotinylated Recombinant Human IL6 was diluted with HBS-P buffer and an aliquot of 100 μl (2 micrograms/ml) was injected into flow cell 2 at 5 microliters/min to yield a signal of 1400 response units (RU) (10 microliters were injected). Any remaining activated residues on the streptavidin surface of flow cells 1 and 2 were blocked with 30 microliters 500 nM free Biotin.
(§1) Affinity scouting assay was performed at a flow rate of 30 microliters/min at 25° C. The analyte (60 microliter aliquots of peptides, at concentrations of 20 μM in HBS-P/2% DMSO buffer) was injected into flow cells 1 and 2 and the association reaction was recorded. The surface was then washed with HBS-P/2% DMSO for 3 min and the dissociation of the analyte from the bound IL6 was followed over time. The surfaces of the flow cells were regenerated with 30 microliters of 10 mM NaOH, followed 50 microliters of HBS-P/2% DMSO buffer.
as §1, with “Kinetics analysis of binding was performed” for “Affinity scouting assay was performed”, “concentrations of 0, 1.25 μM, 2.5 μM, 5 μM, 10 μM and 20 μM” for “concentrations of 20 μM”, “DMSO buffer. Sensorgrams were analyzed using BIAeveluation 3.2.1 software (Cytiva). Values from the reference flow cell were subtracted to obtain the values for specific binding. Data were globally fitted to the Langmuir model for a 1:1 mass transfer binding.” for “DMSO buffer.”
Background: SPR reads the build-up and loss of mass on a sensor chip optically.

Test [1] concerns the target T2, Biotinylated recombinant human IL-6 (human, UniProt P05231 30-212, biotinylated (sites not given)).
T2 construct: In the cell bioassay IL-6 (0.5 nM) was used in solution; also called Interleukin-6; IL-6-Biotin
The test can be described thus: SPR (Biacore), IL-6 on chip.

Test [2] concerns the target T2, Biotinylated recombinant human IL-6. The test can be described thus: cell-based or functional assay.
The target is the same in test [3]. The test can be described thus: SPR (Biacore), IL-6 on chip. The source holds these as a separate data set.

Like-named read-outs stand apart in the source and are kept apart here.

Chain of IL-6 signaling (P05231 30-212): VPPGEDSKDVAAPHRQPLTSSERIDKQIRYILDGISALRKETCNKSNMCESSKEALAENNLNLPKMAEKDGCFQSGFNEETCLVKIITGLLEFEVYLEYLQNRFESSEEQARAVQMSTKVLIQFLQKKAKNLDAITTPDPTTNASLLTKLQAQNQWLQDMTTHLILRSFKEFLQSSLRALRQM

“Ac-SVRDLLRRMKVCVG-NH2 [27(2), SVRDLLRRMKVCVG]”: the IC50 (commonly the midpoint of a concentration-inhibition curve) at IL-6 signaling is 0.58 µM. On IL-6, the Kd (as a rule, the concentration at which binding is half-saturated) stood at 580 ± 156 nM.
“Ac-SFRDLIRMMKVCVG-NH2 [Peptide 90, SFRDLIRMMKVCVG]”: the IC50 at IL-6 signaling was 1.2 µM.
On the same count and under the same terms, next, “Ac-SVRDLLRRMCHIVG-NH2 [9(2), SVRDLLRRMCHIVG]”: 0.085 µM; “Ac-TIRDLIRMMKVCVG-NH2 [Peptide 100, TIRDLIRMMKVCVG]”: 16.8 µM.

B1: Peptide 45 (2) (peptide)
peptide: Ac-FAFRDLLRRMCHIVG-NH2
Take B1: the dissociation constant Kd in test [1] was 0.147 µM. Besides, the “IC50, inhibition of IL-6-induced cell signaling (IL-6 Bioassay, luciferase reporter cells)” value (“IC50, inhibition” below) in test [2] turned out to be 0.072 µM.

B2: Peptide 9 (2) (peptide)
peptide: Ac-SVRDLLRRMCHIVG-NH2
notes: peptide 9 with protected termini
As for B2, the Kd was 0.354 µM in test [1] and 0.3 µM in test [3]. The “IC50, inhibition” value in test [2] was 0.0854 µM.

B3: Peptide 38 (2) (peptide)
peptide: Ac-ATIRDLLRRMCHIVG-NH2
For B3, the Kd in test [1] stood at 0.115 µM. Moreover, the “IC50, inhibition” value in test [2] stood at 0.142 µM.

B4: Peptide 90 (peptide)
peptide: Ac-SFRDLIRMMKVCVG-NH2
As to B4, the Kd was 0.042 µM in test [1] and 0.03 µM in test [3]. The “IC50, inhibition” value in test [2] came out at 1.2 µM.

B5: Peptide 100 (peptide)
peptide: Ac-TIRDLIRMMKVCVG-NH2
B5: the dissociation constant Kd is 0.059 µM in test [1] and 0.05 µM in test [3]. For the same molecule, the “IC50, inhibition” value in test [2] was determined as 16.8 µM.
